Laboratory results from article PMC3642088, “Phosphorylation of CDK9 at Ser175 Enhances HIV Transcription and Is a Marker of Activated P-TEFb in CD4^+ T Lymphocytes” (PLoS Pathogens, 2013).
Blank lines part the entries; values can stand above or below the molecule they belong to.

Key:
BRD4 = BRD4 (UniProt O60885); assay: anti-FLAG co-IP, Western blot; settings: reference: wild type
[1] = target: Cyclin T1 (CycT1, hCycT1) (UniProt O60563); assay: anti-FLAG co-IP, Western blot; settings: reference: wild type
Tat = assay: anti-FLAG co-IP, Western blot; settings: reference: wild type; sites S175
[2] = target: FLAG-tagged CDK9 (293T cells) (human) (UniProt P50750); assay: co-IP; anti-FLAG IP from 293T cells stably expressing FLAG-tagged CDK9, with or without transiently transfected HA-tagged Tat, with or without PMA for 1 hr or 2 hrs, Western blot
FLAG-CDK9 S175D (human) [3] = target: FLAG-CDK9 S175D (human) (UniProt P50750)
FLAG-CDK9 S175A (human) = FLAG-CDK9 S175A (human) (UniProt P50750); assay: co-IP; anti-FLAG IP of FLAG-CDK9 wildtype or mutants from latently infected Jurkat T-cells induced for 16 hr with TNF-α to express Tat, Western blot for BRD4, Tat and CycT1; levels normalised to total CDK9, three experiments
FLAG-CDK9 S175D (human) [4] = target: FLAG-CDK9 S175D (human) (UniProt P50750); assay: as above
FLAG-HEXIM1 = FLAG-HEXIM1 (UniProt O94992); assay: co-IP; anti-FLAG IP of FLAG-HEXIM1 from whole cell extracts of 2D10 cells, unstimulated or PMA for 1 h with or without U0126, FLAG peptide elution, Western blot
FLAG-CDK9 S175A = target: T1, FLAG-CDK9 S175A (human, UniProt P50750 1-372, S175A); assay: co-IP; anti-FLAG M2 agarose IP of FLAG-CDK9 wildtype or mutants from whole cell extracts (lysis buffer A) of Jurkat 2D10 cells, FLAG peptide elution, Western blot; densitometry normalised to total immunoprecipitated CDK9, five experiments; settings: partners not purified
T1 construct: also called S175A CDK9; Ser175Ala

FLAG-CDK9 S175D = target: T2, FLAG-CDK9 S175D (human, UniProt P50750 1-372, S175D); assay: as above; settings: partners not purified
T2 construct: also called S175D CDK9; Ser175Asp

FLAG-CDK9 T186A = target: T3, FLAG-CDK9 T186A (human, UniProt P50750 1-372, T186A); assay: as above; settings: partners not purified
T3 construct: also called T186A CDK9

FLAG-CDK9 T186D = target: T4, FLAG-CDK9 T186D (human, UniProt P50750 1-372, T186D); assay: as above; settings: partners not purified
T4 construct: also called T186D CDK9

Molecule: CDK9 (FLAG-CDK9 isoform 1) (from UniProt P50750) S175A
percent of reference (BRD4; sites S175): 1.9%
percent of reference ([1]; sites S175): 98.9%
percent of reference (Tat): 59.2%

Molecule: CDK9 (FLAG-CDK9 isoform 1) (from UniProt P50750) S175D
percent of reference ([1]; sites S175): 78.9%

Molecule: CDK9 (FLAG-CDK9 isoform 1) (from UniProt P50750) T186D
percent of reference (BRD4; sites T186): 61.6%
percent of reference ([1]; sites T186): 49.4%

Molecule: HA-tagged Tat (from UniProt P04608 1-86) (natural protein)
percent increase of Tat associated with CDK9 after 1 hr of PMA [2]: 12%
percent of HEXIM1 released from FLAG-CDK9 on expression of HA-Tat [2]: 71%
percent of LARP7 released from FLAG-CDK9 on expression of HA-Tat [2]: 82%

Molecule: HIV Tat H13L (from UniProt P04608 1-86) (natural protein)
CDK9 kinase activity of the affinity purified FLAG-CDK9 complex in the in vitro RNAP II CTD kinase assay, against wildtype CDK9 (FLAG-CDK9 S175D (human) [3]): 159%
CDK9 kinase activity of the affinity purified FLAG-CDK9 complex in the in vitro autophosphorylation assay, against wildtype CDK9 (FLAG-CDK9 S175D (human) [3]): 117%
percent of wildtype association (FLAG-CDK9 S175A (human)): 59.2%
percent of wildtype association (FLAG-CDK9 S175D (human) [4]): 109%

percent reduction of association after PMA for 1 h (FLAG-HEXIM1): 30%
Molecule: endogenous CDK9 (from UniProt P50750 1-372) (enzyme)

percent co-immunoprecipitated against wildtype CDK9 (FLAG-CDK9 S175A): > 90%
percent co-immunoprecipitated against wildtype CDK9 (FLAG-CDK9 S175D): 77.2%
percent reduction of co-precipitation against wildtype CDK9 (FLAG-CDK9 T186A): > 99%
percent reduction of co-precipitation against wildtype CDK9 (FLAG-CDK9 T186D): > 99%
B1: LARP7 (natural protein, human (endogenous in Jurkat), UniProt Q4G0J3 1-582, looked up)
chain: METESGNQEKVMEEESTEKKKEVEKKKRSRVKQVLADIAKQVDFWFGDANLHKDRFLREQIEKSRDGYVDISLLVSFNKMKKLTTDGKLIARALRSSAVVELDLEGTRIRRKKPLGERPKDEDERTVYVELLPKNVNHSWIERVFGKCGNVVYISIPHYKSTGDPKGFAFVEFETKEQAAKAIEFLNNPPEEAPRKPGIFPKTVKNKPIPALRVVEEKKKKKKKKGRMKKEDNIQAKEENMDTSNTSISKMKRSRPTSEGSDIESTEPQKQCSKKKKKRDRVEASSLPEVRTGKRKRSSSEDAESLAPRSKVKKIIQKDIIKEASEASKENRDIEISTEEEKDTGDLKDSSLLKTKRKHKKKHKERHKMGEEVIPLRVLSKSEWMDLKKEYLALQKASMASLKKTISQIKSESEMETDSGVPQNTGMKNEKTANREECRTQEKVNATGPQFVSGVIVKIISTEPLPGRKQVRDTLAAISEVLYVDLLEGDTECHARFKTPEDAQAVINAYTEINKKHCWKLEILSGDHEQRYWQKILVDRQAKLNQPREKKRGTEKLITKAEKIRLAKTQQASKHIRFSEYD
notes: source: endogenous, Jurkat T-cell whole cell extract

percent co-immunoprecipitated against wildtype CDK9 (FLAG-CDK9 S175A): > 90%
percent co-immunoprecipitated against wildtype CDK9 (FLAG-CDK9 S175D): 67.5%
percent reduction of co-precipitation against wildtype CDK9 (FLAG-CDK9 T186A): > 99%
percent reduction of co-precipitation against wildtype CDK9 (FLAG-CDK9 T186D): > 99%
B2: HEXIM1 (natural protein, human (endogenous in Jurkat), UniProt O94992 1-359, looked up)
chain: MAEPFLSEYQHQPQTSNCTGAAAVQEELNPERPPGAEERVPEEDSRWQSRAFPQLGGRPGPEGEGSLESQPPPLQTQACPESSCLREGEKGQNGDDSSAGGDFPPPAEVEPTPEAELLAQPCHDSEASKLGAPAAGGEEEWGQQQRQLGKKKHRRRPSKKKRHWKPYYKLTWEEKKKFDEKQSLRASRIRAEMFAKGQPVAPYNTTQFLMDDHDQEEPDLKTGLYSKRAAAKSDDTSDDDFMEEGGEEDGGSDGMGGDGSEFLQRDFSETYERYHTESLQNMSKQELIKEYLELEKCLSRMEDENNRLRLESKRLGGDDARVRELELELDRLRAENLQLLTENELHRQQERAPLSKFGD
notes: as for B1
